Laboratory results taken from the supplement of paper PMC7877785.
± gives the uncertainty stated by the source.

Assay: self-splicing fitness, log relative to wild type (ln ratio); higher = more splicing; Tetrahymena group I intron in knt gene, E. coli kanamycin selection, DiMSum; sequences stand for … in CUCUCU…GGAGGGAAAAGUUAUCAGGCAUGCACCUGGUAGCUAGUCUUUAAACCAAUAGAUUGCAUCGGUUUAAAAGGCAAGACCGUCAAAUUGCGGGAAAGGGGUCAACAGCCGUUCAGUACCAAGUCUCAGGGGAAACUUUGAGAUGGCCUUGCAAAGGGUAUGGUAAUAAGCUGACGGACAUGGUCCUAACCACGCAGCCAAGUCCUAAGUCAACAGAUCUUCUGUUGAUAUGGAUGCAGUUCACAGACUAAAUGUCGGUCGGGGAAGAUGUAUUCUUCUCAUAAGAUAUAGUCGGACCUCUCCUUAAUGGGAGCUAGCGGAUGAAGUGAUGCAACACUGGAGCCGCUGGGAACUAAUUUGUAUGCGAAAGUAUAUUGAUUAGUUUUGGAGUACUCGUGGUCG
How it was run: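 Colonies from six replicate transformations of E. coli BL21(DE3) were pooled and amplicon-sequenced on an Illumina HiSeq 2500. The library placed an intron with all eight P1ex-region nucleotides randomised inside the knt kanamycin-resistance gene on pET-22b(+), and cells grew overnight at 37°C or 30°C on LB agar with or without 25 μg/mL kanamycin (plus 100 μg/mL carbenicillin, 50 μM IPTG, 0.2% rhamnose). Fitness is the DiMSum error-weighted combination of wild-type-normalised replicate fold changes, kanamycin versus none.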

Sequence	self-splicing fitness (ln) (30 °C)	self-splicing fitness (ln) (37 °C)
UUUCAGCAAUAUUACGAGGU	-3.53 ± 0.2	-2.78 ± 0.24
UCACAGCAAUAUUACGCAAG	-2.65 ± 0.17	-1.11 ± 0.15
UGCCAGCAAUAUUACGCGGU	-2.55 ± 0.3	-2.45 ± 0.25
CGCAAGCAAUAUUACGCUAG	-2.46 ± 0.16	-2.89 ± 0.2
AGCCAGCAAUAUUACGUGAA	-3.14 ± 0.091	-1.81 ± 0.1
GGCUAGCAAUAUUACGACUC	0.93 ± 0.14	0.604 ± 0.26
AACGAGCAAUAUUACGCGUG	-1.89 ± 0.094	-1.12 ± 0.099
GAUUAGCAAUAUUACGAGAC	-1.51 ± 0.3	-1.1 ± 0.22
CGAUAGCAAUAUUACGACAU	-3.167 ± 0.021	-1.95 ± 0.035
AGUUAGCAAUAUUACGAUGA	-1.32 ± 0.18	-0.239 ± 0.16
AACUAGCAAUAUUACGACCC		-0.568 ± 0.41
CUGCAGCAAUAUUACGCCUG	-2.21 ± 0.28	-1.14 ± 0.28
AUUAAGCAAUAUUACGCUCG	-0.344 ± 0.11	0.171 ± 0.15
GGUGAGCAAUAUUACGCAGU	-2.13 ± 0.32	-2.45 ± 0.41
UAGUAGCAAUAUUACGACAA	-0.402 ± 0.15	-0.175 ± 0.14
GAAUAGCAAUAUUACGCCUA	-0.724 ± 0.13	-0.0436 ± 0.16
UGAGAGCAAUAUUACGCUUG	-2.26 ± 0.36	-1.55 ± 0.33
GAUGAGCAAUAUUACGAUAG	-3.33 ± 0.16	-2.42 ± 0.17
GAGCAGCAAUAUUACGACAU	-1.29 ± 0.013	-0.608 ± 0.033
ACCUAGCAAUAUUACGAGUA	-2.47 ± 0.14	-1.16 ± 0.12
UUAAAGCAAUAUUACGGCUG	0.262 ± 0.083	0.525 ± 0.12
GCCCAGCAAUAUUACGCACC	-0.112 ± 0.075	0.19 ± 0.097
CCCCAGCAAUAUUACGGCGU	-2.22 ± 0.073	-1.81 ± 0.1
CUCGAGCAAUAUUACGAACU	-3.1 ± 0.26	-2.8 ± 0.43
AUCAAGCAAUAUUACGGGAG	-1.16 ± 0.097	-0.571 ± 0.099
CCACAGCAAUAUUACGAUAU	-3.48 ± 0.2	-2.01 ± 0.15

Sequence	self-splicing fitness (ln) (30 °C)	self-splicing fitness (ln) (37 °C)
AUGCAGCAAUAUUACGUGGC	-4.09 ± 0.28	-2.53 ± 0.19
GAGCAGCAAUAUUACGUUGG	-0.945 ± 0.19	-2.43 ± 0.23
AGACAGCAAUAUUACGGGCU	-1.78 ± 0.11	-0.732 ± 0.13
AUUCAGCAAUAUUACGGAGG	-2.29 ± 0.13	-1.13 ± 0.13
CACAAGCAAUAUUACGCCCA	-0.966 ± 0.091	0.114 ± 0.09
UUCCAGCAAUAUUACGUUAG	-2.57 ± 0.17	-0.904 ± 0.16
CGUCAGCAAUAUUACGCCAA	-3.6 ± 0.3	-1.73 ± 0.18
AGAUAGCAAUAUUACGCGUA	-1.2 ± 0.12	-1.41 ± 0.13
ACAAAGCAAUAUUACGUGGU	-2.87 ± 0.084	-2.99 ± 0.12
AGGCAGCAAUAUUACGUUAG	-3.85 ± 0.26	-2.14 ± 0.16
AUGGAGCAAUAUUACGGAGG	-2.11 ± 0.17	-2.54 ± 0.3
GUGCAGCAAUAUUACGUAUG	-1.86 ± 0.13	-1.1 ± 0.13
AAGAAGCAAUAUUACGCCUC	-1.82 ± 0.26	-1.85 ± 0.27
AUCGAGCAAUAUUACGGGCA	-1.99 ± 0.23	-1.32 ± 0.27
UCUGAGCAAUAUUACGGGGC	-3.3 ± 0.32	-2.7 ± 0.36
CUUAAGCAAUAUUACGCACA	-2.43 ± 0.35	-1.87 ± 0.4
CAAAAGCAAUAUUACGUAAC	-3.75 ± 0.18	-2.62 ± 0.3
GAAGAGCAAUAUUACGGAAC		-0.903 ± 0.29
CAACAGCAAUAUUACGCUGG	-3.71 ± 0.18	-2.01 ± 0.16
AUACAGCAAUAUUACGGGAC	-2.14 ± 0.15	-1.74 ± 0.17
GCGGAGCAAUAUUACGAACG	-3.06 ± 0.29	-2.41 ± 0.23
CCAGAGCAAUAUUACGUUUA	-3.95 ± 0.29	-1.78 ± 0.2
CUAAAGCAAUAUUACGGUAG	-0.409 ± 0.043	-0.0448 ± 0.059
GAUUAGCAAUAUUACGCCUA	-0.405 ± 0.092	0.169 ± 0.095
AGUAAGCAAUAUUACGUCCU	-0.602 ± 0.21	0.854 ± 0.23
CCUAAGCAAUAUUACGUGCC	-2.84 ± 0.3	

Sequence	self-splicing fitness (ln) (30 °C)	self-splicing fitness (ln) (37 °C)
UGCUAGCAAUAUUACGGUGC	-3.92 ± 0.27	-2.38 ± 0.26
CACCAGCAAUAUUACGAUCA	-2.75 ± 0.15	-1.43 ± 0.16
GAAGAGCAAUAUUACGAGUA	-3.78 ± 0.37	-2.75 ± 0.38
AGUGAGCAAUAUUACGCAGU	-3.01 ± 0.24	-0.67 ± 0.2
CCGGAGCAAUAUUACGGCUU	-0.296 ± 0.29	-1.49 ± 0.33
GCCUAGCAAUAUUACGAUUU	-1.98 ± 0.092	-1.34 ± 0.097
UCUUAGCAAUAUUACGACUG	-2.53 ± 0.23	-1.69 ± 0.23
GACUAGCAAUAUUACGUGUG	-1.12 ± 0.055	-0.793 ± 0.073
CGGGAGCAAUAUUACGUUGA	-3.82 ± 0.39	-2 ± 0.23
GUGAAGCAAUAUUACGGGGC	-2.91 ± 0.23	-3.35 ± 0.35
GUAUAGCAAUAUUACGGGGU	-4.08 ± 0.27	-1.4 ± 0.14
CCCUAGCAAUAUUACGGUUU	-3.31 ± 0.17	-2.87 ± 0.17
GUAAAGCAAUAUUACGACGU	0.341 ± 0.11	0.169 ± 0.12
UGCUAGCAAUAUUACGCACA	-1.12 ± 0.13	0.22 ± 0.11
UGAGAGCAAUAUUACGGGGA	-3.16 ± 0.43	-2.77 ± 0.27
CCUGAGCAAUAUUACGAGAC	-2.85 ± 0.33	-0.69 ± 0.33
CUACAGCAAUAUUACGUCUC	-3.38 ± 0.18	-2.55 ± 0.3
GGCCAGCAAUAUUACGGGGA	-0.876 ± 0.068	-0.469 ± 0.073
ACAGAGCAAUAUUACGAGAA	-2.03 ± 0.45	
GGGGAGCAAUAUUACGCGCG	-1.83 ± 0.15	-0.952 ± 0.17
CCAGAGCAAUAUUACGAGCC		-1.84 ± 0.42
GAUCAGCAAUAUUACGAGAU	-3 ± 0.15	-1.55 ± 0.13
CUUAAGCAAUAUUACGGACG	-0.229 ± 0.085	0.228 ± 0.12
CGGAAGCAAUAUUACGUUGG	-1.89 ± 0.071	-0.688 ± 0.077
